“And” between values parts separate entries of the source, which are not always exact repeats. Equal values may be shown once. Where no end group is shown, it is not given here. [ ]: non-standard residue; d: D form. Tyr(3-I) = N[C@@H](Cc1ccc(O)c(I)c1)C(=O)O; Nle = CCCC[C@H](N)C(=O)O

As usually defined, the IC50 is the concentration that gives 50% inhibition.

To fix the notation:
B1: VLRF-NH2 (peptide)
peptide: VLRF-NH2
notes: also called C-terminal tetrapeptide VLRF-NH2
B2: ILNleRF-NH2 (peptide)
peptide: IL[Nle]RF-NH2
modifications: N-terminus assumed
SMILES: CCCC[C@H](NC(=O)[C@H](CC(C)C)NC(=O)[C@@H](N)[C@@H](C)CC)C(=O)N[C@@H](CCCNC(=N)N)C(=O)N[C@@H](Cc1ccccc1)C(N)=O
notes: Synthetic
B3: 3-Iodo-Y-DVPGVLRF-NH2 (peptide)
peptide: [Tyr(3-I)]DVPGVLRF-NH2
modifications: also: 125I in the radiolabelled probe
notes: N-terminally iodo-Tyr-extended flp18 analog

This assay addresses T1, CEGPCR4 (C. elegans).
T1 construct: Expressed in CHO cells
T1 chain: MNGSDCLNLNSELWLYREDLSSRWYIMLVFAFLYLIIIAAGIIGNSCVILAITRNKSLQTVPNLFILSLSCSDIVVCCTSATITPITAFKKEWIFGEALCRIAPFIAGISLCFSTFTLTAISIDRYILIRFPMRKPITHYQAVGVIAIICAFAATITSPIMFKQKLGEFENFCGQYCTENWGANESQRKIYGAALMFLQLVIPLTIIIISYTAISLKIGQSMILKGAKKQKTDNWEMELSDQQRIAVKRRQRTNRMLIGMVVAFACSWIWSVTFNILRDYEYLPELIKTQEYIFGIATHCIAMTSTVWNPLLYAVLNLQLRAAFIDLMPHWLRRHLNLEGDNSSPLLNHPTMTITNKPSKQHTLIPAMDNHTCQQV
The assay is described as follows: competition binding assay, CEGPCR4/CHO membranes, vs [125I-Y]DVPGVLRF-NH2.
In the case of EIVFHQISPIFFRF-NH2 [EIVFHQISPIFFRF-NH2], the IC50 was 50000 to 500000 nM. In the case of GVLRF-NH2 [GVLRF-NH2] it was 1 to 60 nM.

In the case of PGVLRF-NH2 [PGVLRF-NH2], the IC50 lay within 1 to 60 nM. Turning to YGVLRF-NH2 (Synthetic) [Y-GVLRF-NH2], the IC50 was in the range of 1 to 60 nM. In the case of EIPGVLRF-NH2 [EIPGVLRF-NH2] it was 0.5 to 10 nM. The figure for VPGVLRF-NH2 [VPGVLRF-NH2] is 1 to 60 nM; for YPGVLRF-NH2 (Synthetic) [Y-PGVLRF-NH2] it is 1 to 60 nM; for TNRNFLRF-NH2 [TNRNFLRF-NH2 (Lobster peptide II)] it is 50000 to 500000 nM. In the case of NGAPQPFVRF-NH2 [NGAPQPFVRF-NH2] it was 50000 to 500000 nM; in that of SPLGTMRF-NH2 [SPLGTMRF-NH2], 50000 to 500000 nM; in that of Ac-GVLRF-NH2 [Ac-GVLRF-NH2], 1 to 60 nM. Molecule SDNFMRF-NH2 [SDNFMRF-NH2] displayed an IC50 of 50000 to 500000 nM.

PDNFMRF-NH2 [PDNFMRF-NH2] yielded an IC50 of 50000 to 500000 nM. The figure for YDVPGVLRF-NH2 [Y-DVPGVLRF-NH2] is 1 to 60 nM. In the case of DFDGAMPGVLRF-NH2 [DFDGAMPGVLRF-NH2] it was 0.5 to 10 nM; in that of B1, about 400 nM; in that of SAEPFGTMRF-NH2 [SAEPFGTMRF-NH2], 50000 to 500000 nM.

KSVPGVLRF-NH2 [KSVPGVLRF-NH2] returned a concentration for half-maximal inhibition (IC50) of 0.5 to 10 nM. The figure for DVPGVLRF-NH2 [DVPGVLRF-NH2] is 0.5 to 10 nM and 1 to 60 nM. The figure for YVPGVLRF-NH2 (Synthetic) [Y-VPGVLRF-NH2] is 1 to 60 nM. The figure for ASPSFIRF-NH2 [ASPSFIRF-NH2] is 0.5 to 10 nM; for KPNFLRF-NH2 [KPNFLRF-NH2] it is 60000 to 900000 nM; for B2 it is 60000 to 900000 nM. Ac-VPGVLRF-NH2 [Ac-VPGVLRF-NH2] displayed a half-inhibitory concentration (IC50) of 1 to 60 nM. The figure for B3 is 1 to 60 nM.

For the origin of these results see patent publication US20050176069A1 (PHARMACIA AND UPJOHN, published 2005).
